According to PMC6555819, “Comprehensive study of nuclear receptor DNA binding provides a revised framework for understanding receptor specificity”:

target: PPARa:RXRa (Homo sapiens, UniProt Q07869;P19793 full;full); assay: no ligand; PBM; 270 nM : 90 nM RXRa; PBS pH 7.4, 2% milk, 0.02% Triton X-100, 1 mM DTT, BSA, 0.4 mg/ml salmon testes DNA; conditions: tags: GST kept;His cleaved; copies: 1;1; label: surface-attached array probe
Procedure, shortened: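 The probes on custom Agilent 4×180K protein-binding microarrays were double-stranded, with 34-nt variable regions bearing direct-repeat seeds, single-nucleotide variants, half-site ablations and random human genomic background sequences. Incubation lasted 1 h with ligand-free nuclear receptor dimers in PBS pH 7.4, 2% milk, 0.02% Triton X-100, 1 mM DTT, 0.2 mg/mL BSA and 0.4 mg/ml salmon testes DNA. Antibodies against each partner (one per run) detected bound dimers, and fluorescence scans were regression-normalized. Binding z-scores take the random background probes as reference.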

Sequence of PPARa:RXRa (Q07869 whole entry, chain 1 of 2): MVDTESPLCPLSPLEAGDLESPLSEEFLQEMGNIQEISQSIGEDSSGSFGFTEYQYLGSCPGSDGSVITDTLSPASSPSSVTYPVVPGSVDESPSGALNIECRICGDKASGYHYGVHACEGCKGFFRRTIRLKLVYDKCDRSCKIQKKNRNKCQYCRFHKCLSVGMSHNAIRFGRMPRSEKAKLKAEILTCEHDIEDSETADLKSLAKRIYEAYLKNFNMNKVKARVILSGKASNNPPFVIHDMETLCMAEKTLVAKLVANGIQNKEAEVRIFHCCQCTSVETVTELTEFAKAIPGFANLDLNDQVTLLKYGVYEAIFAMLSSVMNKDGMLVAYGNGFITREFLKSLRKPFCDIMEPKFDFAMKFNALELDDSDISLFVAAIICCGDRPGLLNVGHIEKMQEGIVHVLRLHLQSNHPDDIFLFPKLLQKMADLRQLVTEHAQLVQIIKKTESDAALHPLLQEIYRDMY
Sequence of PPARa:RXRa (P19793 whole entry, chain 2 of 2): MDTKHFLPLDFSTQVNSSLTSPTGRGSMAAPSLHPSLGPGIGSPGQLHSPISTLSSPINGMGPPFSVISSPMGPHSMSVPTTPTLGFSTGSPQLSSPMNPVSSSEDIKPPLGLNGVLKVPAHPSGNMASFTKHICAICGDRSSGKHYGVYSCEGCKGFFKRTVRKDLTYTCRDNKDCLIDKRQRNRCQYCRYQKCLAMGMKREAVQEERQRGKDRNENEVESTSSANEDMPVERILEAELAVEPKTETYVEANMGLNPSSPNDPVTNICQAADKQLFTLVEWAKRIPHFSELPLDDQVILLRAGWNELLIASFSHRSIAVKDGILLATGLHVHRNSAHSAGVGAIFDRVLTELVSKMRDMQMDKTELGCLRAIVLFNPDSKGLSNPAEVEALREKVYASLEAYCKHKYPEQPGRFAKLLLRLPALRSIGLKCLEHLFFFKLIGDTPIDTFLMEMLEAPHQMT

| Binder | binding signal |
| --- | --- |
| NRC3_random_hg19_303_o1 (dsDNA) DNA 1: GCAAGATCTCTACAATGAATTGTACCAATGCTCCAGGCGATTGACAGCGTAGAATGAAGG DNA 2: CCTTCATTCTACGCTGTCAATCGCCTGGAGCATTGGTACAATTCATTGTAGAGATCTTGC | -0.05 PBM z-score against 500 random probes |
| NRC3_wobSeed50_DR2_A17T_o1 (dsDNA) DNA 1: GCCCTAGTTGGTCAGGTGGTCACACACCGGATATGAGCGATTGACAGCGTAGAATGAAGG DNA 2: CCTTCATTCTACGCTGTCAATCGCTCATATCCGGTGTGTGACCACCTGACCAACTAGGGC | 0.4 PBM z-score against 500 random probes |
| NRC3_random_hg19_239_o1 (dsDNA) DNA 1: GCATACATAAGGTGATTTGGCTACATGTATAGACAGGCGATTGACAGCGTAGAATGAAGG DNA 2: CCTTCATTCTACGCTGTCAATCGCCTGTCTATACATGTAGCCAAATCACCTTATGTATGC | 0.32 PBM z-score against 500 random probes |
| NRC3_wobSeed40_DR1_G10A_o1 (dsDNA) DNA 1: GCTAGCCTAAGTCATGGGCCAGTATACCACGCGAACGCGATTGACAGCGTAGAATGAAGG DNA 2: CCTTCATTCTACGCTGTCAATCGCGTTCGCGTGGTATACTGGCCCATGACTTAGGCTAGC | -0.06 PBM z-score against 500 random probes |
| NRC3_wobSeed82_DR3_C13G_o1 (dsDNA) DNA 1: GCATCGAAAGGTGGACGAGGTGAGTATACACCGTTTGCGATTGACAGCGTAGAATGAAGG DNA 2: CCTTCATTCTACGCTGTCAATCGCAAACGGTGTATACTCACCTCGTCCACCTTTCGATGC | 0.49 PBM z-score against 500 random probes |
| NRC3_wobSeed44_DR1_A14T_o1 (dsDNA) DNA 1: GCTGAATGAGGTTTAAGATCAGGGAACGTGGCGTCGGCGATTGACAGCGTAGAATGAAGG DNA 2: CCTTCATTCTACGCTGTCAATCGCCGACGCCACGTTCCCTGATCTTAAACCTCATTCAGC | 0.18 PBM z-score against 500 random probes |
| NRC3_random_hg19_200_o1 (dsDNA) DNA 1: GCGCAGGAGAATCAGGCAGGGAGGTTGCAGTGAGCCGCGATTGACAGCGTAGAATGAAGG DNA 2: CCTTCATTCTACGCTGTCAATCGCGGCTCACTGCAACCTCCCTGCCTGATTCTCCTGCGC | -0.47 PBM z-score against 500 random probes |
| NRC3_random_hg19_99_o1 (dsDNA) DNA 1: GCTGTTCTTACTGAGGCGTTTGCTGCCTAGCTCCCTGCGATTGACAGCGTAGAATGAAGG DNA 2: CCTTCATTCTACGCTGTCAATCGCAGGGAGCTAGGCAGCAAACGCCTCAGTAAGAACAGC | -0.37 PBM z-score against 500 random probes |
| NRC3_wobSeed101_DR4_A14T_o1 (dsDNA) DNA 1: GCCCTTACGGGTCTCTCCAGGTTATAGCATCGGAGTGCGATTGACAGCGTAGAATGAAGG DNA 2: CCTTCATTCTACGCTGTCAATCGCACTCCGATGCTATAACCTGGAGAGACCCGTAAGGGC | 0.07 PBM z-score against 500 random probes |
| NRC3_wobSeed47_DR1_G11C_o1 (dsDNA) DNA 1: GCGGAACGAGCGCAAAGTTGATAGCATCTGTCGACGGCGATTGACAGCGTAGAATGAAGG DNA 2: CCTTCATTCTACGCTGTCAATCGCCGTCGACAGATGCTATCAACTTTGCGCTCGTTCCGC | 0.32 PBM z-score against 500 random probes |
| NRC3_wobSeed90_DR3_C13A_o1 (dsDNA) DNA 1: GCCATACAGGGTAAGCTAGGCCAGAGTAGGGACGGCGCGATTGACAGCGTAGAATGAAGG DNA 2: CCTTCATTCTACGCTGTCAATCGCGCCGTCCCTACTCTGGCCTAGCTTACCCTGTATGGC | -0.35 PBM z-score against 500 random probes |
| NRC3_random_hg19_44_o1 (dsDNA) DNA 1: GCATTTGAGATCTCAGTTTCTGCATACTGAATCACCGCGATTGACAGCGTAGAATGAAGG DNA 2: CCTTCATTCTACGCTGTCAATCGCGGTGATTCAGTATGCAGAAACTGAGATCTCAAATGC | -0.2 PBM z-score against 500 random probes |
| NRC3_random_hg19_221_o1 (dsDNA) DNA 1: GCCTTGAATCCAGGAGGCAGAGGCTGCAGTGAGCTGGCGATTGACAGCGTAGAATGAAGG DNA 2: CCTTCATTCTACGCTGTCAATCGCCAGCTCACTGCAGCCTCTGCCTCCTGGATTCAAGGC | -0.29 PBM z-score against 500 random probes |
| NRC3_wobSeed122_DR5_A20T_o1 (dsDNA) DNA 1: GCGCTAGTTGGTCAGTAAATGGTCACACACCGGTCGGCGATTGACAGCGTAGAATGAAGG DNA 2: CCTTCATTCTACGCTGTCAATCGCCGACCGGTGTGTGACCATTTACTGACCAACTAGCGC | 0.26 PBM z-score against 500 random probes |
| NRC3_wobSeed14_DR0_G11T_o1 (dsDNA) DNA 1: GCCCTGCTAGTTCATGGTCAGCTAATCTACAGTATGGCGATTGACAGCGTAGAATGAAGG DNA 2: CCTTCATTCTACGCTGTCAATCGCCATACTGTAGATTAGCTGACCATGAACTAGCAGGGC | 0.23 PBM z-score against 500 random probes |
| NRC3_wobSeed15_DR0_G10T_o1 (dsDNA) DNA 1: GCCGAACTATGTCAAGGACAGTGAATCTCCGCACGCGCGATTGACAGCGTAGAATGAAGG DNA 2: CCTTCATTCTACGCTGTCAATCGCGCGTGCGGAGATTCACTGTCCTTGACATAGTTCGGC | 0.36 PBM z-score against 500 random probes |
| NRC3_random_hg19_172_o1 (dsDNA) DNA 1: GCCAGTACTGTTGCTAGAACTACAACCTGTATGCTGGCGATTGACAGCGTAGAATGAAGG DNA 2: CCTTCATTCTACGCTGTCAATCGCCAGCATACAGGTTGTAGTTCTAGCAACAGTACTGGC | -0.42 PBM z-score against 500 random probes |

| Binder | binding signal |
| --- | --- |
| NRC3_wobSeed42_DR1_A14T_o1 (dsDNA) DNA 1: GCTATACAGGGTCTAAGGCCAGAGTACGAATGTCGAGCGATTGACAGCGTAGAATGAAGG DNA 2: CCTTCATTCTACGCTGTCAATCGCTCGACATTCGTACTCTGGCCTTAGACCCTGTATAGC | 0.39 PBM z-score against 500 random probes |
| NRC3_wobSeed99_DR4_A24T_o1 (dsDNA) DNA 1: GCTCTCGGAGGACACGAAAGGTCTGAGCTCGACATCGCGATTGACAGCGTAGAATGAAGG DNA 2: CCTTCATTCTACGCTGTCAATCGCGATGTCGAGCTCAGACCTTTCGTGTCCTCCGAGAGC | 0.43 PBM z-score against 500 random probes |
| NRC3_wobSeed99_DR4_G20A_o1 (dsDNA) DNA 1: GCTCTCGGAGGACACGAAAAGTCAGAGCTCGACATCGCGATTGACAGCGTAGAATGAAGG DNA 2: CCTTCATTCTACGCTGTCAATCGCGATGTCGAGCTCTGACTTTTCGTGTCCTCCGAGAGC | 0.36 PBM z-score against 500 random probes |
| NRC3_random_hg19_367_o1 (dsDNA) DNA 1: GCATCTGTGTAACCAGCACCACAGTTAAGATACAGAGCGATTGACAGCGTAGAATGAAGG DNA 2: CCTTCATTCTACGCTGTCAATCGCTCTGTATCTTAACTGTGGTGCTGGTTACACAGATGC | -0.28 PBM z-score against 500 random probes |
| NRC3_random_hg19_167_o1 (dsDNA) DNA 1: GCTTTGAAGACACTGAAGGAGTGAGCCATTTGGATCGCGATTGACAGCGTAGAATGAAGG DNA 2: CCTTCATTCTACGCTGTCAATCGCGATCCAAATGGCTCACTCCTTCAGTGTCTTCAAAGC | -0.13 PBM z-score against 500 random probes |
| NRC3_wobSeed64_DR2_A9C_o1 (dsDNA) DNA 1: GCTAGCCTCGGTCATTGGGCCAGTATAGTACGCATCGCGATTGACAGCGTAGAATGAAGG DNA 2: CCTTCATTCTACGCTGTCAATCGCGATGCGTACTATACTGGCCCAATGACCGAGGCTAGC | 0.15 PBM z-score against 500 random probes |
| NRC3_wobSeed134_DR5_A14G_o1 (dsDNA) DNA 1: GCGCTGCTAGGTCGACTGATGGTCAGCTAAAGCTCGGCGATTGACAGCGTAGAATGAAGG DNA 2: CCTTCATTCTACGCTGTCAATCGCCGAGCTTTAGCTGACCATCAGTCGACCTAGCAGCGC | 0.01 PBM z-score against 500 random probes |
| NRC3_wobSeed61_DR2_G11C_o1 (dsDNA) DNA 1: GCCGTCCAAGCTCAGCAGGTCAGTGAAAGCGACGTGGCGATTGACAGCGTAGAATGAAGG DNA 2: CCTTCATTCTACGCTGTCAATCGCCACGTCGCTTTCACTGACCTGCTGAGCTTGGACGGC | 0.35 PBM z-score against 500 random probes |
| NRC3_wobSeed38_DR1_G11T_o1 (dsDNA) DNA 1: GCCCTGCTAGTTCAATGGTCAGCTAAAGCAGCTCGCGCGATTGACAGCGTAGAATGAAGG DNA 2: CCTTCATTCTACGCTGTCAATCGCGCGAGCTGCTTTAGCTGACCATTGAACTAGCAGGGC | 0.22 PBM z-score against 500 random probes |
| NRC3_wobSeed38_DR1_A9C_o1 (dsDNA) DNA 1: GCCCTGCTCGGTCAATGGTCAGCTAAAGCAGCTCGCGCGATTGACAGCGTAGAATGAAGG DNA 2: CCTTCATTCTACGCTGTCAATCGCGCGAGCTGCTTTAGCTGACCATTGACCGAGCAGGGC | 0.02 PBM z-score against 500 random probes |
| NRC3_wobSeed133_DR5_A14C_o1 (dsDNA) DNA 1: GCCGTCCAAGGTCCATGCTAGGTCAGTGAAAGCATTGCGATTGACAGCGTAGAATGAAGG DNA 2: CCTTCATTCTACGCTGTCAATCGCAATGCTTTCACTGACCTAGCATGGACCTTGGACGGC | 0.33 PBM z-score against 500 random probes |
| NRC3_wobSeed2_DR0_A20T_o1 (dsDNA) DNA 1: GCCCTAGTTGGTCAAGGTCTCACACGCTATAGGTACGCGATTGACAGCGTAGAATGAAGG DNA 2: CCTTCATTCTACGCTGTCAATCGCGTACCTATAGCGTGTGAGACCTTGACCAACTAGGGC | 0.37 PBM z-score against 500 random probes |
| NRC3_wobSeed4_DR0_G16T_o1 (dsDNA) DNA 1: GCCCTACTGGGCCAATGTCATTGATCAGTCAAAGCAGCGATTGACAGCGTAGAATGAAGG DNA 2: CCTTCATTCTACGCTGTCAATCGCTGCTTTGACTGATCAATGACATTGGCCCAGTAGGGC | 0.47 PBM z-score against 500 random probes |
| NRC3_wobSeed102_DR4_G11A_o1 (dsDNA) DNA 1: GCCCTAGCAGACCAATCTGGGTCACTCAAGGCTTGAGCGATTGACAGCGTAGAATGAAGG DNA 2: CCTTCATTCTACGCTGTCAATCGCTCAAGCCTTGAGTGACCCAGATTGGTCTGCTAGGGC | 3.03 PBM z-score against 500 random probes |
| NRC3_wobSeed6_DR0_G15C_o1 (dsDNA) DNA 1: GCCCTAGCAGGCCACGGTCACTCAAGCATTTCGCTTGCGATTGACAGCGTAGAATGAAGG DNA 2: CCTTCATTCTACGCTGTCAATCGCAAGCGAAATGCTTGAGTGACCGTGGCCTGCTAGGGC | 0.43 PBM z-score against 500 random probes |
| NRC3_wobSeed141_DR5_T5A_o1 (dsDNA) DNA 1: GCAGACAAAGTTCAGGACGAGGTAACGTAAAGCACGGCGATTGACAGCGTAGAATGAAGG DNA 2: CCTTCATTCTACGCTGTCAATCGCCGTGCTTTACGTTACCTCGTCCTGAACTTTGTCTGC | 3 PBM z-score against 500 random probes |
